B1: SMG5 (parent)
chain: FVSIAQSEQESLLQQAQAQFRMAQ

Variants of: B1
Experiment: protein stability index of a GFP-peptide fusion (GPS, HEK-293T) (PSI 1-6); higher = more stable
Conditions: c terminus: a fixed tail appended
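Also: lentivirally expressed fusions sorted by FACS into six bins by GFP to DsRed ratio, PSI derived from sequencing read proportions per bin multiplied by bin number.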

Protein stability index: each site, then its substitutions
L13: A 2.14
L12: H 2.72; F 2.02; A 2.69; N 2.64; K 2.4; Q 2.66; I 2.53; S 2.21; V 2.31; C 2.17; M 2.44; W 1.75; D 3.33; R 2.4; P 2.48; T 2.54; E 2.48; Y 1.61; G 2.12
A5: V 1.42; D 3.41; P 1.88; N 1.86; G 1.66; K 2.3; Q 2.11; C 1.82; I 1.78; M 2.58; T 1.54; H 2.21; Y 1.91; F 2.56; S 1.76; R 2.57; E 2.64; L 2.23
I4: W 2.8; S 1.87; E 2.91; F 2.2; H 1.9; L 1.86; D 3.09; V 2.29; T 2.78; N 2.49; G 2.42; P 3.08; Y 2.12; K 2.39; M 2.61; C 1.83; R 2.06; Q 3.01
Q6: R 2.33; K 2.26; E 2.93; G 1.85; D 2.75; L 1.79; V 1.53; H 1.92; A 1.9; I 2.02; F 2.15; S 2.25; T 1.84; P 2.35; M 2.19; C 1.44; Y 2.32; N 1.97
E8: R 1.42; M 1.57; S 1.82; Q 2.44; F 3.04; A 2.2; N 1.92; I 1.9; C 2.04; Y 1.4; K 2.07; G 1.86; H 2.02; V 1.39; D 2.39; L 2.19; T 1.84; P 1.62
Q9: Y 1.21; C 3.07; T 2.9; H 2.2; L 3.25; V 1.91; E 2.25; N 2.08; D 2.15; I 1.67; G 1.95; F 2.32; S 2.02; P 1.63; W 1.67; K 1.73; R 1.85; M 2.02; A 1.56
S7: P 2; R 2.79; H 2.77; L 1.77; E 2.85; G 2.61; T 2.36; I 2.56; F 2.22; Y 1.57; W 3.26; M 1.65; A 2.38; Q 2.5; N 2.27; C 1.63; K 1.98; D 2.33
S11: I 1.69; A 2.4; F 1.56; P 2.6; K 2; G 1.2; Q 2.23; T 2.63; N 2.17; E 2.56; M 1.97; W 1.79; R 2.37; C 2.56; L 1.99; D 2.46; Y 2.04; H 2.04; V 1.59
E10: H 1.95; W 2.89; G 1.6; F 2.2; C 2.07; R 2.2; T 1.52; A 1.89; M 1.43; I 1.73; S 1.61; V 2.85; D 2.19; Q 2.54; L 2.14; N 2.03; Y 1.89; K 1.87; P 1.96
